The assay concerns the target IANBD-labeled Hsp90 M362C (human). The assay is described as follows: stopped-flow fluorescence; IANBD-labeled Hsp90 M362C (1 µM) mixed with equal volumes of FKBP51, FK1-FK2, FK2-TPR or buffer, pseudo-first-order, 37 °C, 25 mM sodium phosphate/300 mM NaCl pH 7.2; rates as fluorescence increase at 20 s.

B1: full-length human FKBP51 (natural protein)
chain: MTTDEGAKNNEESPTATVAEQGEDITSKKDRGVLKIVKRVGNGEETPMIGDKVYVHYKGKLSNGKKFDSSHDRNEPFVFSLGKGQVIKAWDIGVATMKKGEICHLLCKPEYAYGSAGSLPKIPSNATLFFEIELLDFKGEDLFEDGGIIRRTKRKGEGYSNPNEGATVEIHLEGRCGGRMFDCRDVAFTVGEGEDHDIPIGIDKALEKMQREEQCILYLGPRYGFGEAGKPKFGIEPNAELIYEVTLKSFEKAKESWEMDTKEKLEQAAIVKEKGTVYFKGGKYMQAVIQYGKIVSWLEMEYGLSEKESKASESFLLAAFLNLAMCYLKLREYTKAVECCDKALGLDSANEKGLYRRGEAQLLMNEFESAKGDFEKVLEVNPQNKAARLQISMCQKKAKEHNERDRRIYANMFKKFAEQDAKEEANKAMGKKTSEGVTNEKGTDSQAMEEEKPEGHV
Take B1: the ΔF (rate of Hsp90 binding, fluorescence increase) came out at 0.0021 s⁻¹.

The values are drawn from publication PMC6208366.
